{"source": "patent US11866736B2", "about": "“Protein prostheses for mitochondrial diseases or conditions” (The General Hospital Corporation, priority 2015, dated 2024)", "molecules": {"B1": {"name": "LbNOX: water-forming NADH oxidase endogenous to Lactobacillus brevis; tested with C-terminal FLAG tag (protein, listed as Lactobacillus brevis)", "chain": "KVTVVGCTHAGTFAIKQILAEHPDAEVTVYERNDVISFLSCGIALYLGGKVADPQGLFYSSPEELQKLGANVQMNHNVLAIDPDQKTVTVEDLTNHAQTTESYDKLVMTSGSWPIVPKIPGIDSDRVKLCKNWAHAQALIEDAKEAKRITVIGAGYIGAELAEAYSTTGHDVTLIDAMARVMPKYFDADFTDVIEQDYRDHGVQLALGETVESFTDSATGLTIKTDKNSYETDLAILCIGFRPNTDLLKGKVDMAPNGAIITDDYMRSSNPDIFAAGDSAAVHYNPTHQNAYIPLATNAVRQGILVGKNLVKPTVKYMGTQSSSGLALYDRTIVSTGLTLAAAKQQGLNAEQVIVEDNYRPEFMPSTEPVLMSLVFDPDTHRILGGALMSKYDVSQSANTLSVCIQNENTIDDLAMVDMLFQPNFDRPFNYLNILAQAAQAKVAQSVNA", "modifications": "C-terminal FLAG tag"}}, "key": {"primary rat hepatocytes": {"system": "primary rat hepatocytes", "experiment": "Gluconeogenesis in primary hepatocytes (adenoviral transduction)", "format": "cell-based", "settings": "adenovirus transduction, 5 mM lactate, glucose measured after 6 hours", "from_the_text": "Two custom adenoviruses (Adenovirus Type 5 (dE1/E3)) were produced by Vector Biolabs. The same LbNOX and mitoLbNOX nucleotide sequences were used as in the lentiviral pLVX-TRE3G constructs. Adenoviral constructs encode for expression of either LbNOX or mitoLbNOX and eGFP, each gene driven by its own CMV promoter. Adenovirus with eGFP driven by the CMV promoter was used as a control (Vector Biolabs, 1060-HT).\nPrimary hepatocytes were obtained from the MGH Cell Resource Core, where they were freshly isolated by collagenase perfusion of livers from 24-hour fasted Sprague-Dawley rats and plated onto 24-well collagen-coated plates. Twenty four thousand cells were plated and cultured overnight in isolation media (DMEM with high glucose and pyruvate (Life Technologies, 11995)) supplemented with 20 ng/mL epidermal growth factor, 14.3 μg/mL glucagon, insulin, 7.5 μg/mL hydrocortisone, 10% FBS, 1% Penicillin-streptomycin). Cells were then transduced with the indicated adenoviral vector (MOI 20) and were serum starved by incubating in DMEM without additional supplementation overnight. […] Media was sampled 6 hours later and glucose was measured using the AMPLEX® Red Glucose Assay (Life-Technologies) and normalized to total protein levels from hepatocytes lysed in 1% SDS as measured by the BCA assay. […]"}, "[1]": {"experiment": "Continuous assay of H2O2 production (Amplex Red/HRP/SOD)", "format": "biochemical", "description": "Reaction mixture contained: 50 mM NaPi pH 7.5, 150 mM NaCl buffer, 350 μM NADH, SOD 130U and 100 μM D-glucose at 37° C. At times indicated LbNOX and glucose oxidase were added. Glucose oxidase was used to validate the assay, since this enzyme produces H2O2 from oxygen and D-glucose. Rates on H2O2-forming activity of LbNOX were compared to rates of NADH disappearance in parallel experiments. It was estimated that around 1.7±0.3% of H2O2 is produced by LbNOX (n=4).\nH2O2 production was monitored in a continuous assay followed by the increase in absorbance at 570 nm upon resorufin formation (ε570=54 mM^−1 cm^−1). It was shown previously that presence of NADH in the assay mixture results in the oxidation of AMPLEX® Red dye in the HRP-dependent manner and this process is greatly diminished by supplementation of superoxide dismutase (SOD) (Votyakova, et al., Arch. Biochem. Biophys., 431:138, 2004). […] The reaction was preincubated at 37° C. for 3 min before LbNOX was added (0.15 μg) and subsequently after LbNOX-dependent rate of H2O2 production was recorded, 4 U of glucose oxidase (Sigma, G2133-10 KU) was added (FIG. 6). […] H2O2-forming activity of LbNOX was compared to the total NADH oxidase activity which was determined in a parallel experiment when the decrease of NADH absorbance at 340 nm was monitored under identical conditions."}, "HeLa Tet3G cells": {"system": "HeLa Tet3G cells", "experiment": "Glucose concentration-dependent cell survival", "format": "cell-based, human", "description": "Images of 96-well plates with fixed cells stained with Hoechst 33345 were collected using Molecular Devices IMAGEXPRESS® Micro XLS. Four images were taken to cover the whole well. Images were analyzed and nuclei number per well was counted using CellProfiler 2.0 image analysis software (Carpenter, et al., Genome Biol., 7:R100, 2006; and Kamentsky, et al., Bioinformatics, 27:1179, 2011).\nTen thousand HeLa Tet3G NDI1, Luciferase, LbNOX or mitoLbNOX cells were seeded in 200 μl of DMEM (DMEM (US Biological, D9800), 3.7 g/L NaHCO3, 10% dialyzed FBS (Life Technologies, 26400-044)) per well of a black 96-well plate with clear bottom (Corning, 3904). Twenty four hours after seeding, 10 μl of 6 μg/ml doxycycline (300 ng/ml final concentration) or water was added to each well. Twenty four hours after addition of doxycycline, media was exchanged to DMEM (DMEM (US Biological, D9800), 3.7 g/L NaHCO3, 10% dialyzed FBS (Life Technologies, 26400-044))±300 ng/ml doxycycline. […] After 24 hours, media was aspirated and cells were fixed by adding 100 μl of 4% paraformaldehyde in PBS and incubating at room temperature for at least 30 min. Paraformaldehyde solution was aspirated and cells were stained with 200 μl of 1 μg/ml Hoechst 33345. Plates were covered with sealing aluminum foil and stored at 4° C. before counting cells in each well with Molecular Dynamics IMAGEXPRESS® Ultra (see “Nuclei counting using Molecular Devices IMAGEXPRESS® Ultra,” above)."}}}
{"molecule": "B1", "values": [{"measurement": "gluconeogenesis from lactate", "setting": "primary rat hepatocytes", "result": "significantly increased"}, {"measurement": "H2O2 relative to H2O production during catalytic cycle", "setting": "[1]", "result": "1-2 % by mole"}, {"measurement": "H2O2 produced (H2O2-forming rate compared to rate of NADH disappearance)", "setting": "[1]; 350 μM NADH, 37° C., n=4", "result": "around 1.7±0.3%"}, {"measurement": "effect on decrease in cell number (cell survival) at low glucose concentrations in the presence of piericidin", "setting": "HeLa Tet3G cells; 1 μM piericidin, 24 hours", "result": "no effect"}, {"measurement": "effect on decrease in cell number (cell survival) at low glucose concentrations in the presence of antimycin", "setting": "HeLa Tet3G cells; antimycin", "result": "no effect"}]}
